Test results as given in US20110262446A1.
Positions count from the first letter of the chain named. One block for each binder: values may come before it.

Columns and labels:
[1] = biological target: IGF-IIE (amino acids 1-104) (human) (UniProt P01344); assay: competition SPR (Biacore T100), affinity in solution: Fab pre-incubated with ligand, free ligand read on immobilized huIR-A ECD; measurement #1; head prints 'KD nM'
[2] = biological target: IGF-IIE (amino acids 1-104) (human) (UniProt P01344); assay: cell-based or functional assay
[3] = biological target: IGF-IIE (amino acids 1-104) (human) (UniProt P01344); assay: SPR (Flexchip), Fab, first of duplicate; unit inferred
[4] = biological target: IGF-IIE (amino acids 1-104) (human) (UniProt P01344); assay: SPR (Flexchip), Fab, second of duplicate; unit inferred
[5] = biological target: IGF-IIE (amino acids 1-104) (human) (UniProt P01344); assay: competition SPR (Biacore T100), affinity in solution: Fab pre-incubated with ligand, free ligand read on immobilized huIR-A ECD; measurement #2; head prints 'KD nM'
[6] = biological target: IGF-IIE (amino acids 1-104) (human) (UniProt P01344); assay: SPR (Biacore T100): IgG captured on Protein G', ligand bound, then BP injected; competitor BP4
[7] = biological target: IGF-IIE (amino acids 1-104) (human) (UniProt P01344); assay: SPR (Biacore T100): IgG captured on Protein G', ligand bound, then BP injected; competitor BP2
[8] = biological target: IGF-IIE (amino acids 1-104) (human) (UniProt P01344); assay: SPR (Biacore), non-germlined IgG
[9] = biological target: IGF-IIE (amino acids 1-104) (human) (UniProt P01344); assay: SPR (Biacore), germlined IgG

IGF-IIE (amino acids 1-104) (human), sequence (P01344 25-128 limits assumed, form in doubt): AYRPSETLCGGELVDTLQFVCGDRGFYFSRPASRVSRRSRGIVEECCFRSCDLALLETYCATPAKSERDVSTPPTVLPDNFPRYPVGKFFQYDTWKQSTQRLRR

Kd [1]: 2.78 nM | IC50, IGF-IIE stimulated BA/F3 cell proliferation (MTS) [2]: 2.04 µg/mL | Kd [3]: 0.12 nM | Kd [4]: 0.2 nM | Kd [5]: 1.47 nM
B1: M0063-F02 Fab (Fab, V domains shown)
VH: EVQLLESGGGLVQPGGSLRLSCAASGFTFSKYEMDWVRQAPGKGLEWVSVISSSGGGTIYADSVKGRFTISRDNSKNTLYLQMNSLRAEDTAMYYCARGRTLYGGAFDIWGQGTMVTVSS
VL: DIQMTQSPSSLSASVGDRVTITCRASQPINTYLNWYQQRPGKAPRILIYTSSTLQSGVPSRFSGSGSGTDFTLTISSVQPEDFATYYCQQSYSFPLTFGGGTKVEIKR

competition score (0 = does not compete significantly, 5 = competes strongly) [6]: 1 score 0-5 | IC50, IGF-IIE stimulated BaF3 cell proliferation (Guava ViaCount) [2]: 0.85 nM | IC50, IGF-IIE stimulated BaF3 cell proliferation (Guava ViaCount), second study [2]: 10 nM | competition score (0 = does not compete significantly, 5 = competes strongly) [7]: 1 score 0-5
B2: M0063-F02 IgG (antibody, V domains shown)
VH: B1 VH
VL: DIQMTQSPSSLSASVGDRVTITCRASQPINTYLNWYQQRPGKAPRILIYTSSTLQSGVPSRFSGSGSGTDFTLTISSVQPEDFATYYCQQSYSFPLTFGGGTKVEIK

competition score (0 = does not compete significantly, 5 = competes strongly) [6]: 1 score 0-5 | competition score (0 = does not compete significantly, 5 = competes strongly) [7]: 2 score 0-5
B3: M0070-H08 IgG (antibody, V domains shown)
VH: EVQLLESGGGLVQPGGSLRLSCAASGFTFSRYWMIWVRQAPGKGLEWVSSIRSSGETKYADSVKGRFTISRDNSKNTLYLQMNSLRAEDTAVYYCARGPLSDYYDSSGYYFDAFDIWGQGTMVTVSS
VL: DIQMTQSPSSLSASAGDRVTITCRASQSISSYLNWYQQKPGKAPNLLIYTTSNLQGGVPSRFSGSGSGTDFTLTISSLQPEDFATYYCQQGYSFPLTFGGGTKVEIK

Kd [1]: 4.83 nM | Kd [3]: 0.36 nM | Kd [4]: 0.39 nM
B4: M0070-H08 Fab (Fab, V domains shown)
VH: B3 VH
VL: DIQMTQSPSSLSASAGDRVTITCRASQSISSYLNWYQQKPGKAPNLLIYTTSNLQGGVPSRFSGSGSGTDFTLTISSLQPEDFATYYCQQGYSFPLTFGGGTKVEIKR

Kd [1]: 3.95 nM | IC50, IGF-IIE stimulated BA/F3 cell proliferation (MTS) [2]: 2.3 µg/mL | Kd [3]: 0.52 nM | Kd [5]: 1.05 nM
B5: M0072-C06 Fab (Fab, V domains shown)
VH: EVQLLESGGGLVQPGGSLRLSCAASGFTFSAYIMTWVRQAPGKGLEWVSSISPSGGYTVYADSVKGRFTISRDNSKNTLYLQMNSLRAEDTAVYYCARDSGFGDPFDYWGQGTMVTVSS
VL: DIQMTQSPSSLSASVGDRVTITCRASQSIRNYLNWYQQKPGKAPKLLIYAASKLEDGVPSRFSGSGTGTDFTLTIRSLQPEDFASYFCQQSYSSPGITFGPGTKVEIKR

competition score (0 = does not compete significantly, 5 = competes strongly) [6]: 1 score 0-5 | competition score (0 = does not compete significantly, 5 = competes strongly) [7]: 2 score 0-5
B6: M0072-C06 IgG (antibody, V domains shown)
VH: B5 VH
VL: DIQMTQSPSSLSASVGDRVTITCRASQSIRNYLNWYQQKPGKAPKLLIYAASKLEDGVPSRFSGSGTGTDFTLTIRSLQPEDFASYFCQQSYSSPGITFGPGTKVEIK

competition score (0 = does not compete significantly, 5 = competes strongly) [6]: 4 score 0-5 | IC50, IGF-IIE stimulated BaF3 cell proliferation (Guava ViaCount) [2]: 130 nM | competition score (0 = does not compete significantly, 5 = competes strongly) [7]: 4 score 0-5 | Kd [8]: 0.24 nM
B7: M0064-E04 IgG (antibody, V domains shown)
VH: EVQLLESGGGLVQPGGSLRLSCAASGFTFSVYDMNWVRQAPGKGLEWVSSISSSGGGTLYADSVKGRFTISRDNSKNTLYLQMNSLRAEDTAVYYCARDSDTSSYYWYYDLWGRGTLVTVSS
VL: DIQMTQSPSSLSASVGDRVTITCQASHDISNYLNWYQQKPGKAPKLLIYAASRLQSGVPSRFSGGGSGTDFSLTISSLQAEDFATYYCQQSYSFPRTFGQGTNLEIK

Kd [9]: 0.26 nM
B8: X0005-H01 (germlined M0064-E04 IgG) (antibody, V domains shown)
VH: B7 VH
VL: B7 VL with G65S, S72T, A80P, N103R

Kd [9]: < 0.023 nM
B9: X0008-A01 (germlined M0064-F02 IgG) (antibody, V domains shown)
VH: EVQLLESGGGLVQPGGSLRLSCAASGFTFSNYIMWWVRQAPGKGLEWVSVISSSGGMTRYADSVKGRFTISRDNSKNTLYLQMNSLRAEDTAVYYCARDNGDYVGEKGFDIWGQGTMVTVSS
VL: DIQMTQSPSSLSASVGDRVTITCRASQSISNYLNWYQQKPGKAPKLLIYTASTLQSGVPSRFSGSGSGTDFTLTISSLQPEDFATYYCQQSYNSPWTFGQGTKVEIK
